Our source for the C50 values is patent EP2857035B1.

The target in one experiment is HLA-B7 (human). The experiment in a line: assembly assay (HLA-B7 stabilisation).
For another experiment, the target named is HLA-B35 (human). The experiment in a line: assembly assay, T2-B35 cell lysate, W6/32 IP, IEF gel.

Turning to RPPIFIRRL (modifications not checked) [C7], the C50 with HLA-B7 (human) is 0.5 µM.
YPLHEQHQM (modifications not checked) [C24, EBNA3A458-466] had a C50 with HLA-B35 (human) of 0.8 µM.
In the experiment with HLA-B7 (human), QPRAPIRPI (modifications not checked) [C6] registered a C50 of 0.1 µM.
